According to the RNAGym collection of RNA variant scans (doi:10.1073/pnas.2313332121):

B1: TPR t1 (parent)
chain: GACCAAUCUGCCCUCAGAGCUCGAGAACAUCUUCGGAUGCAGAGGAGGCAGGCUUCGGUGGCGCGAUAGCGCCAACGUCCUCAACCUCCAAUGCAUCCCACCACAUGAUGAUGCCUGAAGAGCCUUGGUUUUUUG

Variants of: B1
Assay: polymerase ribozyme fitness, log enrichment relative to wild type (log ratio); higher = more active; in vitro selection for triplet polymerase activity
In short: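 Mutant libraries of both subunits of a heterodimeric triplet polymerase ribozyme were PCR-built, transcribed, and selected once in triplicate, with frozen incubation at −7 °C and capture of gel-excised extended constructs on streptavidin beads before RT-PCR. Illumina sequencing of input and output libraries was filtered to genotypes with ≥10 input reads and ≥1 read per output. Fitness is the logarithm of genotype enrichment over wild-type enrichment, using inverse-variance-weighted replicate averages. The logarithm is base 2.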

Row | Variant | polymerase ribozyme fitness (log ratio)
1 | C4G A18U G25C C62A A111U | -6.22
2 | A5C C15U G60C U96A | -2.98
3 | C4U G117A | -2.18
4 | C4G A91C G120U | -1.84
5 | C4U U38G C49A C53U C73U | -2.53
6 | A5C C11A U54A C104U | -0.94
7 | A5C A90U | -2.01
8 | C4G C115U | -2.19
9 | A5C A24G G48U G110A C124U U131C | -4.58
10 | C4G A29G U54C | -2.97
11 | C4G C11G C49A G51C G58A C73U C79U | -4.64
12 | C4A G71A A84C G117U | -6.14
13 | C4G C13G C49A G60A C62U | -4.62
14 | C4A G10C C98U G117A A121U | -4.42
15 | C4U C56A C86U | -1.22
16 | C4U C20A A111G | -4.75
17 | C4U C20A A111U | -2.94
18 | C4G U55C C72U C94G | -3.35
19 | C4U G17C G69U | -2.09
20 | A5C C22A G69U C80U C114A | -1.41
21 | A5C C8A C12U U54A C56U G63U C98G | -7.29

Row | Variant | polymerase ribozyme fitness (log ratio)
22 | C4G U59A G71U C82A | -5.53
23 | A5C C12A C72U G113C | -3.72
24 | A5C A43C G45A C56A A91G G113A | -4.37
25 | C4G G61A U78A A83G C124U U125G | -1.07
26 | C4G G57C C64U A83G C85U | -3.12
27 | C4U A5C G57C A68U C73U C115U C124U | -6.74
28 | C4U C64A C124U | -5.08
29 | C4G C12U | -2.1
30 | C4U C12G C49G A95U A111G | -1.16
31 | A5C C15A C62G A100U G117U | -4.14
32 | C4U A5U U59G C64U | -3.75
33 | C4U C115A | -1.18
34 | C4U G47A C56U C70A C101U A119G G120U G127A | -3.88
35 | C4G A41U | -2.07
36 | C4A G63A A83U A118G | -3.12
37 | A5C C13U C79A C114A | -2.82
38 | C4A G48A G57A C85U C101A | -4.21
39 | C4U C8A C123G | 0.914
40 | C4U A74G C89G U112G | -2.61
41 | C4A U87C G120A G127A | -0.66
42 | C4A G69U U106C C124U | -1.05

Row | Variant | polymerase ribozyme fitness (log ratio)
43 | C4U G60U U92A U96C | -3.48
44 | C4U G44U C72A | -0.827
45 | C4U G10C G69U U125A | -2.15
46 | C4U C114G | -2.65
47 | C4U C70A A121C U131A | -0.259
48 | C4U G10U G52U C88G C123U | -0.494
49 | C4G C20U C94U A111U | -5.59
50 | C4U C20A | -2.6
51 | C4G G77A C86U C97U | -3.31
52 | C4U G36C G63A G69U G120A G127A | -0.365
53 | A5C C12A G61U G113C | -2.74
54 | A5C C13A C94A U112G | -2.97
55 | A5C A29G C49G C70A U92C G117U | -7.38
56 | A5C C40G | -1.78
57 | A5C C40U | -1.31
58 | C4U A37G | -0.871
59 | C4U A43C G45A G69U C124A | 0.59
60 | C4G G63A | -2.73
61 | C4U G60A C86U G93A G117A U133A | -3.03
62 | C4U G63A U116G A121U G127U | -4.48
63 | C4U G69U C72G C124G | 0.464

Row | Variant | polymerase ribozyme fitness (log ratio)
64 | C4U A75G C76A G77U | -2.12
65 | C4U C56G A111U | -2.42
66 | C4G U78C U112G | -1.83
67 | A5C A46U U106C | -1.72
68 | C4U G71A U87A C97U | -1.86
69 | C4U G113A | -1.15
70 | C4G C12G G36C G44C C97G | -2.86
71 | C4G G63U C123A | -1.09
72 | A5C C13A C70U U87A | -3.43
73 | C4G A5U C76U | -2.75
74 | A5C A46C C56A C102U | -3.74
75 | C4G C73A | -1.43
76 | C4U A27G C62A | -4.35
77 | C4U C72U G117C | -4.14
78 | C4G U112G | -0.359
79 | A5C C15G G57U | -3.53
80 | C4U C20U U59G C89G U112A U125A U131C | -2.82
81 | A5C A50U G69A U81A A121C | -1.62
82 | C4U G44U | -1.74
83 | C4G C123A | -0.461
